# From the supplement of paper PMC7877785
# ± gives the uncertainty stated by the source.
# Experiment: self-splicing fitness, log relative to wild type (ln ratio); higher = more splicing; Tetrahymena group I intron in knt gene, E. coli kanamycin selection, DiMSum; sequences stand for … in CUCUCU…GGAGGGAAAAGUUAUCAGGCAUGCACCUGGUAGCUAGUCUUUAAACCAAUAGAUUGCAUCGGUUUAAAAGGCAAGACCGUCAAAUUGCGGGAAAGGGGUCAACAGCCGUUCAGUACCAAGUCUCAGGGGAAACUUUGAGAUGGCCUUGCAAAGGGUAUGGUAAUAAGCUGACGGACAUGGUCCUAACCACGCAGCCAAGUCCUAAGUCAACAGAUCUUCUGUUGAUAUGGAUGCAGUUCACAGACUAAAUGUCGGUCGGGGAAGAUGUAUUCUUCUCAUAAGAUAUAGUCGGACCUCUCCUUAAUGGGAGCUAGCGGAUGAAGUGAUGCAACACUGGAGCCGCUGGGAACUAAUUUGUAUGCGAAAGUAUAUUGAUUAGUUUUGGAGUACUCGUGGUCG
# Procedure, shortened: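 Library with all eight P1ex-region intron nucleotides randomised, intron inside the knt kanamycin-resistance gene on pET-22b(+), in E. coli BL21(DE3). Cells grew overnight at 37°C or 30°C on LB agar with or without 25 μg/mL kanamycin (plus 100 μg/mL carbenicillin, 50 μM IPTG, 0.2% rhamnose), in six replicate transformations. Pooled colonies were amplicon-sequenced on Illumina HiSeq 2500. DiMSum fitness is the error-weighted combination of wild-type-normalised replicate fold changes, kanamycin versus none.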
Sequence,self-splicing fitness (ln) (37 °C),self-splicing fitness (ln) (30 °C)
ACAUAGCAAUAUUACGGGCC,-1.59 ± 0.2,–
ACCUAGCAAUAUUACGCAAU,-0.798 ± 0.09,-2 ± 0.1
AUGAAGCAAUAUUACGUCUU,-1.44 ± 0.087,-2.04 ± 0.081
AAAGAGCAAUAUUACGCGCA,-1.5 ± 0.12,-2.39 ± 0.17
GUAAAGCAAUAUUACGGCGC,-0.000459 ± 0.14,0.572 ± 0.13
GGCCAGCAAUAUUACGAUGC,0.00176 ± 0.11,-0.639 ± 0.093
UAAAAGCAAUAUUACGGUGU,-2.83 ± 0.15,-3.4 ± 0.13
UUUUAGCAAUAUUACGUUGC,–,-2.8 ± 0.43
AUCGAGCAAUAUUACGAGAU,-2.01 ± 0.17,-2.58 ± 0.13
CUGUAGCAAUAUUACGUCGA,-1.06 ± 0.35,-2.71 ± 0.35
ACACAGCAAUAUUACGCGAA,-1.4 ± 0.12,-2.47 ± 0.12
UGUCAGCAAUAUUACGGGGG,-1.64 ± 0.15,-2.6 ± 0.14
CUCUAGCAAUAUUACGACGU,-3.03 ± 0.22,–
UUACAGCAAUAUUACGAUUG,-0.796 ± 0.1,-1.76 ± 0.091
CUAAAGCAAUAUUACGGACG,-0.189 ± 0.092,0.255 ± 0.084
GAAUAGCAAUAUUACGACUC,-1.34 ± 0.18,-0.601 ± 0.13
UCUUAGCAAUAUUACGCUGG,-1.64 ± 0.23,-2.64 ± 0.24
CAGCAGCAAUAUUACGACUA,0.43 ± 0.081,-0.351 ± 0.068
GGGAAGCAAUAUUACGGACU,-0.24 ± 0.19,-1.99 ± 0.17
CCCGAGCAAUAUUACGCGAA,-3.31 ± 0.21,–
UAAGAGCAAUAUUACGCAUU,-2.32 ± 0.26,-2.87 ± 0.22
UUUCAGCAAUAUUACGGGCG,0.331 ± 0.14,-1.02 ± 0.098
UAUAAGCAAUAUUACGUUCC,–,-1.83 ± 0.31
GUCGAGCAAUAUUACGUAAC,-0.434 ± 0.14,-0.996 ± 0.13
UGUGAGCAAUAUUACGUCAG,-1.02 ± 0.24,-1.88 ± 0.3

Sequence,self-splicing fitness (ln) (37 °C),self-splicing fitness (ln) (30 °C)
UUGUAGCAAUAUUACGUCGC,–,-3.54 ± 0.46
CAAGAGCAAUAUUACGAGUG,-1.23 ± 0.12,-1.46 ± 0.089
AAAGAGCAAUAUUACGUCUA,-0.882 ± 0.093,-1.12 ± 0.093
AAUUAGCAAUAUUACGCGUU,-2.61 ± 0.28,-3.13 ± 0.32
UGUAAGCAAUAUUACGUGCC,-0.0201 ± 0.22,-1.46 ± 0.2
UACCAGCAAUAUUACGUGAC,-1.12 ± 0.14,-3.12 ± 0.13
UAAAAGCAAUAUUACGUGGG,-1.44 ± 0.13,-3.67 ± 0.23
ACACAGCAAUAUUACGAGUG,-0.923 ± 0.057,-1.43 ± 0.041
GACCAGCAAUAUUACGAUUG,-1.08 ± 0.084,-2.1 ± 0.073
GCCCAGCAAUAUUACGAAUA,-1.19 ± 0.12,-1.62 ± 0.1
UUGAAGCAAUAUUACGUAGG,-0.153 ± 0.12,-1.27 ± 0.11
AAUUAGCAAUAUUACGUAAC,-1.55 ± 0.29,-1.98 ± 0.16
GGCUAGCAAUAUUACGCGCA,-0.145 ± 0.13,0.157 ± 0.096
UUCGAGCAAUAUUACGUCUU,-1.69 ± 0.39,-2.89 ± 0.31
UGGUAGCAAUAUUACGGCGC,-0.642 ± 0.3,-1.57 ± 0.37
CGACAGCAAUAUUACGAGGG,-2.99 ± 0.15,-3.67 ± 0.13
CUUCAGCAAUAUUACGAGAC,-3.01 ± 0.34,-4.24 ± 0.34
AUGUAGCAAUAUUACGUUUA,-1.86 ± 0.12,-2.38 ± 0.13
CUAAAGCAAUAUUACGUUCC,-2.25 ± 0.41,-3.89 ± 0.4
UCAAAGCAAUAUUACGUAGG,-0.463 ± 0.096,-1.07 ± 0.072
AUACAGCAAUAUUACGUCCG,-1.38 ± 0.17,-1.75 ± 0.13
UCCAAGCAAUAUUACGUAAG,-2.37 ± 0.21,-4.14 ± 0.3
GAGCAGCAAUAUUACGAAAA,–,-2.68 ± 0.39
GACGAGCAAUAUUACGAAAG,-1.53 ± 0.37,-3.59 ± 0.43
GUCUAGCAAUAUUACGCCCA,-0.356 ± 0.26,-0.688 ± 0.26

Sequence,self-splicing fitness (ln) (37 °C),self-splicing fitness (ln) (30 °C)
AAAAAGCAAUAUUACGCAAC,-1.99 ± 0.24,-2.16 ± 0.15
ACAUAGCAAUAUUACGGGUG,-0.515 ± 0.064,-1.25 ± 0.046
UGCAAGCAAUAUUACGUCCG,0.55 ± 0.12,0.463 ± 0.1
CGAAAGCAAUAUUACGCGGC,-2.38 ± 0.31,-2.81 ± 0.3
CGUCAGCAAUAUUACGGAUU,-0.245 ± 0.1,-1.35 ± 0.1
UUAAAGCAAUAUUACGACUA,0.643 ± 0.14,0.243 ± 0.1
GAAAAGCAAUAUUACGAUGG,-0.913 ± 0.12,-2.73 ± 0.13
GCCAAGCAAUAUUACGAGAC,-0.746 ± 0.12,-2.73 ± 0.18
UCAUAGCAAUAUUACGGCGC,–,-2.63 ± 0.31
CCGAAGCAAUAUUACGUUCA,-0.988 ± 0.23,-2.76 ± 0.16
CGAGAGCAAUAUUACGCGAU,-1.04 ± 0.37,-3.7 ± 0.48
AAUGAGCAAUAUUACGCGCC,-2.73 ± 0.44,-3.19 ± 0.28
GGGCAGCAAUAUUACGGCGC,0.0143 ± 0.14,-0.77 ± 0.11
GUUCAGCAAUAUUACGCCGG,-0.806 ± 0.28,-2.55 ± 0.21
CCUUAGCAAUAUUACGCGAC,-2.12 ± 0.28,-3.16 ± 0.26
AGGUAGCAAUAUUACGAGCA,-0.51 ± 0.034,-1.33 ± 0.019
CAUGAGCAAUAUUACGCUAG,-2.82 ± 0.23,-3.07 ± 0.21
GUCAAGCAAUAUUACGAGAA,-1.83 ± 0.2,-3.59 ± 0.36
GCGAAGCAAUAUUACGCUUG,-1.56 ± 0.35,-1.45 ± 0.26
UUCGAGCAAUAUUACGGAGC,-3.16 ± 0.38,–
UAUAAGCAAUAUUACGUAAA,-0.632 ± 0.14,-2.23 ± 0.12
ACGCAGCAAUAUUACGUACA,-0.547 ± 0.12,-2.03 ± 0.11
UCGAAGCAAUAUUACGAUCU,-2.44 ± 0.27,-2.67 ± 0.21
AUGGAGCAAUAUUACGUAAA,-2.09 ± 0.26,-3.85 ± 0.26
GUAAAGCAAUAUUACGACCA,0.27 ± 0.13,-0.123 ± 0.093

Sequence,self-splicing fitness (ln) (37 °C),self-splicing fitness (ln) (30 °C)
GUCGAGCAAUAUUACGGGGU,-1.74 ± 0.18,-1.92 ± 0.16
CUUCAGCAAUAUUACGGAGC,-2.65 ± 0.25,-3.04 ± 0.29
AUGGAGCAAUAUUACGAUGA,-1.36 ± 0.46,-2.98 ± 0.41
GCACAGCAAUAUUACGUUCG,-0.441 ± 0.085,-0.717 ± 0.065
GAGAAGCAAUAUUACGAUCU,-0.515 ± 0.095,-1.66 ± 0.097
CGUCAGCAAUAUUACGUGUA,-1.66 ± 0.083,-3.11 ± 0.099
UGCGAGCAAUAUUACGACUA,-1.09 ± 0.28,-1.26 ± 0.23
GGUGAGCAAUAUUACGUGGA,-3.3 ± 0.28,-2.86 ± 0.36
CAUAAGCAAUAUUACGGUCA,-1.89 ± 0.2,-2.41 ± 0.24
CGAAAGCAAUAUUACGCUCA,0.0149 ± 0.13,-0.156 ± 0.094
UUACAGCAAUAUUACGUAGG,-1.19 ± 0.096,-1.12 ± 0.066
AGCGAGCAAUAUUACGCUGG,-3.38 ± 0.42,-3.39 ± 0.28
GCCAAGCAAUAUUACGGUUU,-0.943 ± 0.07,-1.08 ± 0.047
UAAAAGCAAUAUUACGUCUG,0.201 ± 0.075,-0.0205 ± 0.058
ACACAGCAAUAUUACGAUCC,-0.951 ± 0.13,-1.21 ± 0.093
UUCUAGCAAUAUUACGACCA,-0.269 ± 0.14,-0.559 ± 0.15
GAGUAGCAAUAUUACGGCUC,-2.51 ± 0.48,-2.59 ± 0.37
ACAGAGCAAUAUUACGCUGC,–,-4.55 ± 0.46
UCUAAGCAAUAUUACGGUCG,-0.375 ± 0.13,-1.34 ± 0.095
AGACAGCAAUAUUACGCAGC,-2.19 ± 0.39,-2.72 ± 0.23
GCCCAGCAAUAUUACGUGCA,-0.691 ± 0.083,-1.47 ± 0.083
CAGUAGCAAUAUUACGAAGA,-2.1 ± 0.41,–
ACCGAGCAAUAUUACGGCGA,-0.768 ± 0.12,-0.182 ± 0.086
